From the DeepSol protein solubility set come the findings set out here.

This series is described as follows: soluble on expression in E. coli; label from the status in PepcDB or PDB records.
“MSLGTFRFGTSATPEGKTLLVDSKGLILDGKHIIPVMGEIHYSRVPESEWRREIRKMKAGGINIISTYIFWIHHEPEEGKWNWSGNHNLRRFVRICAEENVMLVLRLGPFCHGEVYQGGIPSWVHEKAGQNPKYKIRARTPGFLEDCTELYNTIFAQVNGLLWKDGGPVVGVQIENESRGPWDYLEALKNIAVKAGFDVPFYTRTGWPALRGKEVFGQLLPLYGDYADGFWDRKLEDMPGSYADAFIMRDKRMSSAIATETFSKEELSEDSPSLSSKLSYPYFTCELGGGMMPAYHRRININGKELKPLVICKLGSGSNLPGYYMYHGGTNPYNPLHTMGETQSSPGTNHNDLPHMTYDFQAPLGEVGQVFETPFHEGRFIHQMLTDWGSELLQMNVDSLSRHYARRGAFEFYNDYVRIKNESGTSHVTFKDYRTEGATIDWTTVEPFCKVDGLIYFIEIRGKKPQISVDGKVYTCKLNKQQKAGKLNVCVLSYEKAKTAYKIDGKLLYAKNGGILYKSDSCIVEEVWTKSPVIAATVTEVKKADAPRVVPMGRQAVAAQPVEEDFAKAAVYTINYDTSGINNYDNLFLRINYRGDVARVYADGRLVADNFWNGKEMWVRMADLVGKKVELKILPLRKDAPVYFQKEQKAMIEATKGDYMLGLDSVEVIERHTLEFNDTEGHHHHHH”: the “soluble on expression in E. coli” value was “soluble”.

Take “MRISAKGRYALAAVISMAQQYNNGEYITVISISEKLGISKIFLEQVFSSLKKAKIVSSTKGVQGGYQLTRTPSQITVLDVLLSVEVSLFEQTQETVSDKAPDIEQALRSSVFDVLDKNIKQTLSTITIADLVAEAEKHKDYNALMFYI”: the “soluble on expression in E. coli” value is recorded as “soluble”.

In the case of “MTNLKAVIPVAGLGMHMLPATKAIPKEMLPIVDKPMIQYIVDEIVAAGIKEILLVTHASKNAVENHFDTSYELESLLEQRVKRQLLAEVQSICPPGVTIMNVRQGEPLGLGHSILCARPAIGDNPFVVVLPDVVIDDASADPLRYNLAAMIARFNETGRSQVLAKRMPGDLSEYSVIQTKEPLDREGKVSRIVEFIEKPDQPQTLDSDIMAVGRYVLSADIWPELERTQPGAWGRIQLTDAIAELAKKQSVDAMLMTGDSYDCGKKMGYMQAFVKYGLRNLKEGAKFRKGIEKLLSE”, the “soluble on expression in E. coli” value is “not soluble”.

As to “MVKDLLEERARELGLLFAWAPLDLPQEAEARHRAWLEAGRHGGMAYLEAPERFHPRKRFPWAKSALLLFAPYAYPDPGTPPGGLRVGRVARYAWTRDYHLVLGEALKALEETARGLGLKAKGYVDHGPLPERTLAALSGAGWIGKSGYFLSQAFGVHAFIGVLLTPLEVEAAPLHPSRCGRCARCLSACPTEALLGDGTLDARACVSYLTIEHKGPIPPSLWPGIGDWLFGCDLCGEACPWERFGKVWKALRPEPELAHPDLLDFFRLSGRAFGRKYAGTAFLRAGRARMARNALIVLFNLGLGEALFLEATRDPNPLVRRTALRALHLMGKPLDPFLQDPGLREEALALLGEAPEAVHLLQDGREAPGPEVKEQGA”, the “soluble on expression in E. coli” value is recorded as “not soluble”.

Turning to “MSLRVLGIETSCDETGIAIYDDEKGLLANQLYSQVKLHADYGGVVPELASRDHVRKTVPLIQAALKESGLTAKDIDAVAYTAGPGLVGALLVGATVGRSLAFAWDVPAIPVHHMEGHLLAPMLEDNPPEFPFVALLVCGGHTQLISVTGIGQYELLGESIDDAAGEAFDKTAKLLGLDYPGGPLLSKMAAQGTAGRFVFPRPMTDRPGLDFSFSGLKTFAANTIRDNGTDDQTRADIARAFEDAVVDTLMIKCKRALDQTGFKRLVMAGGVSANRTLRAKLAEMMKKRRGEVFYARPEFCTDNGAMIAYAGMVRFKAGATADLGVSVRPRWPLAELPAEGHHHHHH”, the “soluble on expression in E. coli” value is given as “soluble”.

Turning to “MSLEKLAASTEPQGPRPVLGRESVQVPDDQDFRSFRSECEAEVGWNLTYSRAGVSVWVQAVEMDRTLHKIKCRMECCDVPAETLYDVLHDIEYRKKWDSNVIETFDIARLTVNADVGYYSWRCPKPLKNRDVITLRSWLPMGADYIIMNYSVKHPKYPPRKDLVRAVSIQTGYLIQSTGPKSCVITYLAQVDPKGSLPKWVVNKSSQFLAPKAMKKMYKACLKYPEWKEGHHHHHH”, the “soluble on expression in E. coli” value is “not soluble”.

For “MCRIPVMIVSQPKQLKALSDPTRIKILELLREHPMSVSEIAERLGRDKSTVYRHIKALEDAGLVEVVEKIGNEVVYGRVAYVFLLVPNSNKEIEDLRRAYLSREVEKLIEVLEDSGIRIRDKEKFRSIVQKVFRDIENQSQHILSRLMNSSFDEIALIHILNFLTFLYSHKYVEESKQLFKLLDI”, the “soluble on expression in E. coli” value is reported as “soluble”.

Turning to “NVVLKDASELLDEVVVIGYGAVKKSDLTSSISTVKGKEITETVTGNAMDALQGKINGVQVTSGGGPGAQPKVLIRGVTTVNGTDPLYVVDGMPVGTNINFLNSNDIESMEVLKDASAAAIYGTRASNGVILITTKKGMAGK”, the “soluble on expression in E. coli” value was “not soluble”.

Regarding “SNASGQQVHRLLGNKLELASTGQTIYHQDINLNNHPWIGDHRVYDTPVIPGVSYIAMTLAAVGVPAAVEDINFQQPLFLAESNTTRETQLMLHTADNVGKQFVEVFSRDGAKQEEWQQHASMSVSENPPPPPTLSVDIPALCEQLRPLDTDTLTEIYASISLVYGPMLQAVRQAWIGEETSLLEIEVPKALAFQLAGEPIHPVLIDACTRLTPDLFDFSSDSGVFWAPWRVKEMTLSHPTPSRFYAYVEEPSRVNEQLQTRSYDIQLLDETGQAFGRINGFTVKRAPSQLFLK”, the “soluble on expression in E. coli” value is “soluble”.

In the case of “MGSDKIHHHHHHMQLIFFRGMKELLSTMDLDTDANTIPELKERAHMLCARFLGGAWKTVPLEHLRISRIKGGMSNMLFLCRLSEVYPPIRNEPNKVLLRVYFNPETESHLVAESVIFTLLSERHLGPKLYGIFSGGRLEEYIPSRPLSCHEISLAHMSTKIAKRVAKVHQLEVPIWKEPDYLCEALQRWLKQLTGTVDAEHRFDLPEECGVSSVNCLDLARELEFLRAHISLSKSPVTFCHNDLQEGNILLPKASSGNIRMPSLSDETQALGNSLSAFNPADPRLVLIDFEYASYNYRAFDFANHFIEWTIDYDIDEAPFYKIQTENFPENDQMLEFFLNYLREQGNTRENELYKKSEDLVQETLPFVPVSHFFWGLRERSSVAVLQT”, the “soluble on expression in E. coli” value is “not soluble”.

On to “MEILYIKGDATAPIGSGVKVITHICNDIGGWGKGFVLALSKKWKMPEEAYRQWYKSQEEFTLGAVQFVNVENKLYVANMIGQHGIYKDSKGLPPIRYDAVRQCLKEVALFTIAHKASVHMPRIGCGLAGGKWELMEQIIKEELITKEIAVTVYDLMAGDPLEHHHHHH”, for which the “soluble on expression in E. coli” value is recorded as “soluble”.

In the case of “MGSDKIHHHHHHMNISNSQVNRLRHFVRAGLRSLFRPEPQTAVEWADANYYLPKESAYQEGRWETLPFQRAIMNAMGSDYIREVNVVKSARVGYSKMLLGVYAYFIEHKQRNTLIPAGFVAVFNSDESSWHLVEDHRGKTVYDVASGDALFISELGPLPENVTWLSPEGEFQKWNGTAWVKDAEAEKLFRIREAEETKNSLMQVASEHIAPLQDAVDLEIATEEETSLLEAWKKYRVLLNRVDTSTAPDIEWPTNPVRE”, the “soluble on expression in E. coli” value was “not soluble”.

In the case of “GVKLQQSGPEVVKPGASVKISCKASGYSFTNFYIHWVKQRPGQGLEWIGWIFHGSDNTEYNEKFKDKATLTADTSSSTAYMQLSSLTSEDSAVYFCARWGPHWYFDVWGQGTTVTVSSAKTTPPSVYPLAPGNSMVTLGCLVKGYFPEPVTVTWNSGSLSSGVHTFPAVLQSDLYTLSSSVTVPSSTWPSETVTCNVAHPASSTKVDKKIAAAG”, the “soluble on expression in E. coli” value is given as “soluble”.

“MCSKQSANQQISYRQTAEATLDKGMDNQPEAPYWFPKQLLKWQLSKDKAAKYNTASVPLAKRIDKWQLPTVNKTQDPKMKVVALSIMNSSTSGNAPRGINTFDANVFSNWQYIDQLVYWGGSAGEGLIVPPTADVIDSAHKNGVPVLGTVFFPQVVSGGKLKWLNDFLKQDADGHFPMADKLVAVAKAYGFDGWFINQETDPEVKSFDSASTGKTATSSTSNGLSKKHAQLMQQLIKEYKQKAGSKLDLMWYDSMTKDGKMDWQNALTKENQSYLVDANMKPVADSMFLNFWWTKKRLASQELLKKSHERAEKLGISPYNLFAGIDVQADGTATPVRWNLFANKQHVPYTSLGLYAPDWTHASSDTVDEFQAKEGALWVNLEHHHHHH”: the “soluble on expression in E. coli” value was “soluble”.

Regarding “MSATPPTTPAPTAAASAGKGLHSRAYNGLIKACDKYVPPKMRPLWMHPAGPKTIFFWAPIVKWSLVIAGLSDLTRPADKISPNGCLALGATNLIWTRYSLVIIPKNYSLFAVNLFVSLTQLFQLGRYYNYQWEQSRLEKNGEQCPAIEASLLEHHHHHH”, the “soluble on expression in E. coli” value is reported as “not soluble”.

With “MEASRLLLLEDSSVDAELIEDQLSRLSPPPAVTRAVGKASFIEALEKQQFDIILADFSLPDFDGMSALDLVMRTRPDTPFIFVSGILGEDAAIDAFRRGATDYVLKQRLVRLPSAVERALAEAREKQERKRAELHKELLVRELSHRVKNTMAMVVSIIRRTAKGSTSIKDYQERLVARVSALAESHALLFQSNWGETNLRDVVKRAIEPHNTFASRVELEGPDGVHVSPKSALALGMILHELATNAQKYGSLSGANGKVEVFWKKILNGDGNDCIDLRWQESGGPPVSVPQDTGFGTTLITRGVQYELQAESEIRYDPDGLQYRVIFPLD”, the “soluble on expression in E. coli” value is “not soluble”.

Turning to “MSLSKIKSVRTRVWNWTGPTVPPTGNFCTNASDVLWDKGDAMSSFRFHQWLTCEVETDDGTIGIGNAALAPTVVKKAIDDWFAPMVIGEDPFDYAYLWEKMYRRSHAWGRKGIGMTAISAVDLAIWDLMGKLTGKPVFKLLGGRTKEKIPVYYSKLYSGPIDTMQAEAEEARKNNYPGYKMRFGWGPKDGMAGMRENLKRVEAVREVIGYDVDLMLECYQGWNLDYTKRMLPKLVKYEPRWLEEPVIADDVEGYRELNAMNIVPISGGEHEFSVIGCKDLIEKKAVSVLQYDTNRVGGITAAQKINAIAEAFQVPVIPHAGQMHNYHLTMANANCMISEYFPVFDVEVGNELFYYIFEGDPAAVDGFLDLDDNIPGLGISITDKYLKHFEIQEEGHHHHHH”, the “soluble on expression in E. coli” value was “soluble”.

With “SLPGMEHNHNHDHSSHGNHAMHDVGPADATYDLRFIDAMIQHHYGAIEMAKVTINQGYPGAGALASQIISAQSWEIANMLRQRQLRFPDAPIMPVRYTPGQSTVLSQLQPMTEADKVAMRMSGTMDMTGDRGKAFAAAMIPHHEMAIAMAEDALAKSGDSFVRSISWEIIRTQSDEIRRLRGLL”, the “soluble on expression in E. coli” value was “not soluble”.

On to “MGQMFNPPHPGETLREDVLPAFNLTVTEAANQLGVSRVTLSRVLNGTSAISPEMALRIEEWLGVENGGRADLWLGMQTSYDLWKARERVHQQPLSVRSVKHKSTEMALR”, for which the “soluble on expression in E. coli” value is recorded as “not soluble”.

On to “MGSDKIHHHHHHCSEKTTTEIPETELKNISCSTQLVTHSSAQTRGAAPTTLNENDFVLYAFKKNGEGNFSYEEAKHETSVIDGGVWKYNAAFPVGTYKFIAFYNLDEKNQAALNTTITGISNQTWENILKSIVITHFPSATGQYHEDMNEIFCGKTTDEIDISSGIGGDDNEIKIKLTLERIVSRIDIKFIKVASDDDHIEVPYATGNIFGGTGTTSLTSLIFTSSNVPLKYNLNGENPDYVTGVQCQVTYAAPSFQYGEANADAVKALDYQPFPQNADAINNNMETNIKKGIAKGGAYFMGSYLLPFPSSSQTLNANIQLNKANQERTIKVPGFAVTSNYVSIITVRLKSSTDAGDNNNGNDDEHLFNPKSTFIVEIEKTYVGIHNTNVDVE”, for which the “soluble on expression in E. coli” value is “not soluble”.

For the sequence “MGSDKIHHHHHHMAKHPLVMALAKVIIAAAWADGELSLDEVNDLKRLLAELGQTGGQFALTADDWAELEIYLYSPVEAAERARLIADLRDLIITPGQQQLVLQAIERLLIADRVLTPVEREVAQEIQRALTQDSQSLLFQIGRAFRLALGIRAGGPNREDLLPEFMRNRIYYALQIRLGQHIDEFGLDRDELHVLTLAGGLLARVAYVDKQVTPAEHDRIVAILKEWWQLDDTQAALVAEVALDESAASLDFFRLTKAFADATTVERRQRFLDALFAVALADGELSGAESAEISRITAAINLPHDSFVAARLRLPRQPGKRL”, the “soluble on expression in E. coli” value is on record as “not soluble”.
